Experimental data taken from patent US20150299332A1 (UNIVERSITY OF TSUKUBA, published 2015).

Biological target: T1, human CD300a-Fc (human, UniProt Q9UGN4 18-180)
T1 construct: extracellular domain; Made from a chimeric cDNA as in Document 25; not shown: human IgG1 Fc
T1 sequence (looked up): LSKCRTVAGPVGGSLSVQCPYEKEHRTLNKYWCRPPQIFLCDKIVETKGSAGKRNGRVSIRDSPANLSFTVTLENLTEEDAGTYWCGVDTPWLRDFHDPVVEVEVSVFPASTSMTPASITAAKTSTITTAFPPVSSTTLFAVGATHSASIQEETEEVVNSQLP
Experiment: flow cytometry binding inhibition: human CD300a-Fc on apoptotic Jurkat cells with TX49 (binding of TX49 to CD300a-Fc shown by blocking)
Procedure: First, Jurkat cells (human T-cell line) were suspended in RPMI 1640 medium, and the resulting medium was irradiated with UV for 60 minutes to prepare apoptotic Jurkat cells.
Further, cytometry analysis was carried out under the same test conditions as in Reference Example 1B except that the “Jurkat cell-derived apoptotic cells” were used as apoptotic cells instead of the apoptotic cells derived from wild-type mouse thymocytes; “human CD300a-Fc” was used instead of the “mouse CD300a-Fc”; and “TX49” or “control human IgG1” was used instead of “TX41” (results: FIG. 2E “TX49” or “HuIgG1”). “TX49” is an anti-human CD300a antibody (monoclonal antibody), and blocks binding of CD300a to the ligand.

binding result: binds
B1: Human CD300a monoclonal antibody TX49 (mouse IgG1) (antibody, V domains shown)
VH: EVQLQQSGAELVKPGASVKLSCKASGYTFTSYWMQWVKQRPGQGLEWIGEIDPSDSYTNYNQKFKGKATLTVDTSSSTTYMQLSSLTSEDSAVYYCARWGMAYGTSSYWYFDVWGTGTTVTVSS
VL: DCDIQMTQTTSSLSASLGDRVTISCRASQDISNYLNWYQQKPDGTVKLLIYYTSRLHSGVPSRFSGSGSGTDYSLTISNLEQEDIATYFCQQGNTLPWTFGGGTKLEIKR
notes: also called anti-human CD300a monoclonal antibody; anti-human CD300a antibody
